According to publication PMC7897226:

Assays:
[1] = biological target: CheY2-T25 (P. aeruginosa); test: two-hybrid
[2] = biological target: T25-CheY2 (P. aeruginosa); test: two-hybrid

fold β-galactosidase activity over controls [1] [fold] | fold β-galactosidase activity over control [2] [fold] | Molecule
34 | – | T18-CheA2 (enzyme)
– | 15 | CheD_(1–200)-T18 (natural protein) MNLQAREGAPLNRYYDPYFACDAVKLLPGEYFASGEDLVIVTVLGSCVSVCLRDPLNGIAGMNHFMLPERGLGGDPASPSARYGSHAMELLINRMLALGASRERLQAKVFGGGSVLRQISAAIGQRNVEFTLDYLATERIPLLASDVLEAFPRKIYFFPRNGRVLVKSLVELKNDTVLQRERDYRRRIDRNADGGPIDLF
